Each block holds one molecule with its values, some of them ahead of it.
Experiments:
[1] = molecular target: His6-FRedB (putative FMN reductase FRedB of Lactobacillus johnsonii N6.2, from p15TV-fredB, individually purified) (Lactobacillus johnsonii N6.2)
FRedA/B = molecular target: T1, FRedA/B (Lactobacillus johnsonii, UniProt A0A7D9N7Z8+A0A7D9N811); experiment: isothermal titration calorimetry; assay type: binding
T1 construct: gene T285_08435; full-length, both chains N-terminal His6, co-expressed and co-purified from E. coli BL21 (p15TV-fredA + pCDF-his-fredB); heterodimer 43 kDa
Text: isothermal titration calorimetry on FRedA/B | FMN binding to the FRedA/B heterodimer is an exergonic reaction

[2] = molecular target: FRedB fused to the zinc finger DNA-binding domain of murine Zif268 (pACTR-fredB) (Lactobacillus johnsonii N6.2); experiment: two-hybrid; bacterial two-hybrid in E. coli KDZifΔZ (ω subunit fusion and Zif268 fusion), 10 μM IPTG, β-galactosidase activity with CPRG in arbitrary units; static or aerobic growth
purified protein [3] = substrate: Cc1cc2nc3c(=O)[nH]c(=O)nc-3n(C[C@H](O)[C@H](O)[C@H](O)COP(=O)(O)O)c2cc1C; experiment: purified protein; assay type: biochemical, Lactobacillus johnsonii; conditions: fixed NADH, 100 mM MES pH 5.5, 37 °C
purified protein [4] = substrate: Cc1cc2nc3c(=O)[nH]c(=O)nc-3n(C[C@H](O)[C@H](O)[C@H](O)COP(=O)(O)OP(=O)(O)OC[C@H]3O[C@@H](n4cnc5c(N)ncnc54)[C@H](O)[C@@H]3O)c2cc1C; experiment: purified protein; assay type: biochemical, Lactobacillus johnsonii; conditions: fixed NADH, 100 mM MES pH 5.5, 37 °C
purified protein [5] = substrate: NC(=O)C1=CN([C@@H]2O[C@H](COP(=O)(O)OP(=O)(O)OC[C@H]3O[C@@H](n4cnc5c(N)ncnc54)[C@H](O)[C@@H]3O)[C@@H](O)[C@H]2O)C=CC1; experiment: purified protein; assay type: biochemical, Lactobacillus johnsonii; conditions: fixed flavin electron acceptor, 100 mM MES pH 5.5, 37 °C

Molecule: Cc1cc2nc3c(=O)[nH]c(=O)nc-3n(C[C@H](O)[C@H](O)[C@H](O)COP(=O)(O)O)c2cc1C [FMN]
Kd (FRedA/B): 1960 ± 130 nM

B1: FRedA/B (Lactobacillus johnsonii N6.2) (protein)
chain 1: MKLLAIVGTNADFSYNRFLDQFMAKRYKDQAEIEVYEIADLPRFKKEAQPDSKVEEFKNKIREADGVIFATPEYDHGIPSALKSAMEWTGSHAQGNADVMKMKPAMVLGTSYGIQGASRAQEEMREILLSPDQSANVLPGNEVLIGHAADKFDKNTGDLLDQETIHAIDLAFNNFVKFVEQAQK
chain 2: MKLFAIVGSNADHSYNRDLLNFIKKHFTDRYDIELGEVKDLPMFKEGVKEPAAVASFAKKVADADAVLISTPEQQHSVPSSLKSALEWLSSAEHPFKDKPVVIVGTSVLPQGSARGQSHLKLVLSSPGFGAKVFNGDEFMMGTAPEQFDENGNLPAGTVKFLDHFFDEFDSFYAEVSK
notes: full-length, both chains N-terminal His6, co-expressed and co-purified from E. coli BL21 (p15TV-fredA + pCDF-his-fredB); heterodimer 43 kDa
Km (purified protein [3]): 20.36 ± 2.6 µM
Vmax (purified protein [3]): 204 µmol/min/mg
kcat (purified protein [3]): 146 s⁻¹
kcat/Km (purified protein [3]): 7.16e+06 M⁻¹ s⁻¹
Km (purified protein [4]): 19.85 ± 2.5 µM
Vmax (purified protein [4]): 67 µmol/min/mg
kcat (purified protein [4]): 48 s⁻¹
kcat/Km (purified protein [4]): 2.42e+06 M⁻¹ s⁻¹
Km (purified protein [5]): 59.68 ± 5.8 µM
Vmax (purified protein [5]): 185 µmol/min/mg
kcat (purified protein [5]): 132 s⁻¹
kcat/Km (purified protein [5]): 2.22e+06 M⁻¹ s⁻¹

The next lines start with the values.

initial rate (V0) of NADH oxidase activity, FRedB preincubated with purified LjPAS (reduced by 50%) (μmol min^-1 mg^-1) [1]: 2.6
initial rate (Vo) of NADH oxidase activity, both monomers combined and incubated with FMN before addition of NADH (μmol min^-1 mg^-1) [1]: 31.3
initial rate of NADH oxidase activity, FRedA preincubated with FMN before addition of FRedB (μmol min^-1 mg^-1) [1]: 0.27
initial rate of NADH oxidase activity, FRedB preincubated with FMN before addition of FRedA (μmol min^-1 mg^-1) [1]: 6.48
initial rate of NADH oxidase activity, purified LjPAS added after FRedA and FRedB were preincubated with FMN (not significantly slower) (μmol min^-1 mg^-1) [1]: 25.2
Molecule: His6-FRedA (putative FMN reductase FRedA of Lactobacillus johnsonii N6.2, from p15TV-fredA) (natural protein)

β-galactosidase activity [2]: 11700 AU
Molecule: FRedA fused to the ω subunit of E. coli RNA polymerase (pBR-fredA) (natural protein)

Source: PMC4500961, “H2O2 production rate in Lactobacillus johnsonii is modulated via the interplay of a heterodimeric flavin oxidoreductase with a soluble 28 Kd PAS domain containing protein” (Frontiers in Microbiology, 2015)
